Square brackets hold non-standard residues; d marks the D form. Ends that are not written are not given here. pS = N[C@@H](COP(=O)(O)O)C(=O)O
Target: T1, full-length mouse wild-type Keap1-6xHis (Kelch-like ECH-associated protein 1) (mouse, UniProt Q9Z2X8 1-624)
T1 construct: Keap1, mouse, full-length protein Met1-Cys624; also called full-length Keap1; Keap1 homodimer; not shown: 6xHis, C-terminal, kept
Assay: NMR titration; competition: preformed complex of 0.05 mM 13C/15N-Neh2 and 0.1 mM Keap1 (1:2) titrated with p62-KIR peptide (phosphorylated 0.25-5 mM, non-phosphorylated 1.0 and 5 mM); 20 mM Tris-HCl pH 8.0, 100 mM NaCl, 4 mM TCEP; read-out is recovery of Neh2 signals
Conditions: both partners purified

T1 sequence (Q9Z2X8 whole entry): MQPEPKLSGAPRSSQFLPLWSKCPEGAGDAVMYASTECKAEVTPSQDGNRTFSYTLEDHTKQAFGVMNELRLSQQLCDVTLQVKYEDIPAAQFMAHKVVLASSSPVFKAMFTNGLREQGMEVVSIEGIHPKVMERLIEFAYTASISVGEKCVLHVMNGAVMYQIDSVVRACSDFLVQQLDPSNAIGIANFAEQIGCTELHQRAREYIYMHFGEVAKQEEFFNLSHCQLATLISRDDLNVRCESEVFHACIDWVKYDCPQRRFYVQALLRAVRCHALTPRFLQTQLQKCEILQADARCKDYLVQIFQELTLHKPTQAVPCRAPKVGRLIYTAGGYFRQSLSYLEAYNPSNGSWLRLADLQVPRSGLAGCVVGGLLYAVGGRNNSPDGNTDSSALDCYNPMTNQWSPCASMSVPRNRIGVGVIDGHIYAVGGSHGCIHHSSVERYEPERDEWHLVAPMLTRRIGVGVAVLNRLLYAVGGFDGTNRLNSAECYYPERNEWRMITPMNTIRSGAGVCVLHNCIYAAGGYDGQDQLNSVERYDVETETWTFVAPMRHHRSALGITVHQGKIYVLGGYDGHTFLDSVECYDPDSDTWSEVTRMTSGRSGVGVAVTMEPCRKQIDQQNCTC

binding result: binds
B1: phosphorylated p62-KIR peptide (peptide)
peptide: KEVDP[pS]TGELQSLQ
notes: also called P-p62-KIR; p62-pKIR peptide; source: bought: Toray Research Center

Source: publication PMC8121781, “Molecular basis for the disruption of Keap1–Nrf2 interaction via Hinge & Latch mechanism” (Communications Biology, 2021)
